T1: UvrD-CTD (Escherichia coli, UniProt P03018 645-720)
T1 sequence: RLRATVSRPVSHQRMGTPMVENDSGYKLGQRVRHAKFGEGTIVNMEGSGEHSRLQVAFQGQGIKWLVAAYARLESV

B1: UvrD carboxy-terminal region (UvrD-CTD, residues 645-720) (domain or fragment, E. coli, UniProt P03018 645-720, looked up)
chain: T1 sequence
notes: UvrD helicase (Helicase II), E. coli, residues 645-720; The His6 tag is called uncleavable; Used [U-15N] labelled in the NMR experiments; source: E. coli BL21(λDE3) pLysS, purified (Ni-NTA, SEC); not shown: His6, N-terminal, kept
B2: Mfd full-length (1-1148) (enzyme, E. coli, UniProt P30958 1-1148, looked up)
chain: MPEQYRYTLPVKAGEQRLLGELTGAACATLVAEIAERHAGPVVLIAPDMQNALRLHDEISQFTDQMVMNLADWETLPYDSFSPHQDIISSRLSTLYQLPTMQRGVLIVPVNTLMQRVCPHSFLHGHALVMKKGQRLSRDALRTQLDSAGYRHVDQVMEHGEYATRGALLDLFPMGSELPYRLDFFDDEIDSLRVFDVDSQRTLEEVEAINLLPAHEFPTDKAAIELFRSQWRDTFEVKRDPEHIYQQVSKGTLPAGIEYWQPLFFSEPLPPLFSYFPANTLLVNTGDLETSAERFQADTLARFENRGVDPMRPLLPPQSLWLRVDELFSELKNWPRVQLKTEHLPTKAANANLGFQKLPDLAVQAQQKAPLDALRKFLETFDGPVVFSVESEGRREALGELLARIKIAPQRIMRLDEASDRGRYLMIGAAEHGFVDTVRNLALICESDLLGERVARRRQDSRRTINPDTLIRNLAELHIGQPVVHLEHGVGRYAGMTTLEAGGITGEYLMLTYANDAKLYVPVSSLHLISRYAGGAEENAPLHKLGGDAWSRARQKAAEKVRDVAAELLDIYAQRAAKEGFAFKHDREQYQLFCDSFPFETTPDQAQAINAVLSDMCQPLAMDRLVCGDVGFGKTEVAMRAAFLAVDNHKQVAVLVPTTLLAQQHYDNFRDRFANWPVRIEMISRFRSAKEQTQILAEVAEGKIDILIGTHKLLQSDVKFKDLGLLIVDEEHRFGVRHKERIKAMRANVDILTLTATPIPRTLNMAMSGMRDLSIIATPPARRLAVKTFVREYDSMVVREAILREILRGGQVYYLYNDVENIQKAAERLAELVPEARIAIGHGQMRERELERVMNDFHHQRFNVLVCTTIIETGIDIPTANTIIIERADHFGLAQLHQLRGRVGRSHHQAYAWLLTPHPKAMTTDAQKRLEAIASLEDLGAGFALATHDLEIRGAGELLGEEQSGSMETIGFSLYMELLENAVDALKAGREPSLEDLTSQQTEVELRMPSLLPDDFIPDVNTRLSFYKRIASAKTENELEEIKVELIDRFGLLPDPARTLLDIARLRQQAQKLGIRKLEGNEKGGVIEFAEKNHVNPAWLIGLLQKQPQHYRLDGPTRLKFIQDLSERKTRIEWVRQFMRELEENAIA
notes: Mfd (Transcription-Repair Coupling Factor, TRCF), E. coli, full-length, residues 1-1148; Construct bought from Genscript; Used [U-2H,15N] labelled in the NMR experiments; also called Transcription-Repair Coupling Factor; TRCF; source: E. coli BL21 Star (λDE3), purified (Ni-NTA, SEC)
B3: UvrD helicase, full-length (1-720) (enzyme, E. coli, UniProt P03018 1-720, looked up)
chain: MDVSYLLDSLNDKQREAVAAPRSNLLVLAGAGSGKTRVLVHRIAWLMSVENCSPYSIMAVTFTNKAAAEMRHRIGQLMGTSQGGMWVGTFHGLAHRLLRAHHMDANLPQDFQILDSEDQLRLLKRLIKAMNLDEKQWPPRQAMWYINSQKDEGLRPHHIQSYGNPVEQTWQKVYQAYQEACDRAGLVDFAELLLRAHELWLNKPHILQHYRERFTNILVDEFQDTNNIQYAWIRLLAGDTGKVMIVGDDDQSIYGWRGAQVENIQRFLNDFPGAETIRLEQNYRSTSNILSAANALIENNNGRLGKKLWTDGADGEPISLYCAFNELDEARFVVNRIKTWQDNGGALAECAILYRSNAQSRVLEEALLQASMPYRIYGGMRFFERQEIKDALSYLRLIANRNDDAAFERVVNTPTRGIGDRTLDVVRQTSRDRQLTLWQACRELLQEKALAGRAASALQRFMELIDALAQETADMPLHVQTDRVIKDSGLRTMYEQEKGEKGQTRIENLEELVTATRQFSYNEEDEDLMPLQAFLSHAALEAGEGQADTWQDAVQLMTLHSAKGLEFPQVFIVGMEEGMFPSQMSLDEGGRLEEERRLAYVGVTRAMQKLTLTYAETRRLYGKEVYHRPSRFIGELPEECVEEVRLRATVSRPVSHQRMGTPMVENDSGYKLGQRVRHAKFGEGTIVNMEGSGEHSRLQVAFQGQGIKWLVAAYARLESV
notes: UvrD helicase (Helicase II), E. coli, full-length, residues 1-720; The His6 tag is called uncleavable; Used [U-2H,15N] labelled in the NMR experiments; also called UvrD-FL; UvrD full-length; source: E. coli BL21(λDE3) pLysS, purified (Ni-NTA, SEC); not shown: His6, N-terminal, kept
B4: biotinylated 35mer dsDNA (dsDNA)
DNA 1: CGAGCACTGCACTCGAGTGCAGTGCTCGTTGTTAT
DNA 2: B4 DNA 1
modifications: biotin (position not given)
B5: 35mer dsDNA (dsDNA)
DNA 1: B4 DNA 1
DNA 2: B4 DNA 1
B6: UvrD-ΔCTD (1-664) (domain or fragment, E. coli, UniProt P03018 1-664, looked up)
chain: MDVSYLLDSLNDKQREAVAAPRSNLLVLAGAGSGKTRVLVHRIAWLMSVENCSPYSIMAVTFTNKAAAEMRHRIGQLMGTSQGGMWVGTFHGLAHRLLRAHHMDANLPQDFQILDSEDQLRLLKRLIKAMNLDEKQWPPRQAMWYINSQKDEGLRPHHIQSYGNPVEQTWQKVYQAYQEACDRAGLVDFAELLLRAHELWLNKPHILQHYRERFTNILVDEFQDTNNIQYAWIRLLAGDTGKVMIVGDDDQSIYGWRGAQVENIQRFLNDFPGAETIRLEQNYRSTSNILSAANALIENNNGRLGKKLWTDGADGEPISLYCAFNELDEARFVVNRIKTWQDNGGALAECAILYRSNAQSRVLEEALLQASMPYRIYGGMRFFERQEIKDALSYLRLIANRNDDAAFERVVNTPTRGIGDRTLDVVRQTSRDRQLTLWQACRELLQEKALAGRAASALQRFMELIDALAQETADMPLHVQTDRVIKDSGLRTMYEQEKGEKGQTRIENLEELVTATRQFSYNEEDEDLMPLQAFLSHAALEAGEGQADTWQDAVQLMTLHSAKGLEFPQVFIVGMEEGMFPSQMSLDEGGRLEEERRLAYVGVTRAMQKLTLTYAETRRLYGKEVYHRPSRFIGELPEECVEEVRLRATVSRPVSHQRMGTPMV
notes: UvrD helicase (Helicase II), E. coli, residues 1-664; made by inserting a stop codon; Probably the His6 full-length construct; also called truncated UvrD lacking the CTD; source: E. coli BL21(λDE3) pLysS, purified (Ni-NTA, SEC)
B7: Mfd RNAP Interaction Domain (Mfd-RID, residues 472-547; Domain 4) (domain or fragment, E. coli, UniProt P30958 472-547, looked up)
chain: RNLAELHIGQPVVHLEHGVGRYAGMTTLEAGGITGEYLMLTYANDAKLYVPVSSLHLISRYAGGAEENAPLHKLGG
notes: Mfd (Transcription-Repair Coupling Factor, TRCF), E. coli, residues 472-547, comprising Domain 4; Used [U-15N] labelled in the NMR experiments; source: E. coli BL21 Star (λDE3), purified (Ni-NTA, SenP1 cleavage, second Ni-NTA, SEC); not shown: His6, N-terminal, cleaved; Sumo, N-terminal, cleaved

Key:
[1] = target: T2, RNA polymerase core enzyme (subunits α2ββ'ω) (E. coli, UniProt P0A7Z4 1-329; P0A8V2 1-1342; P0A8T7 1-1407; P0A800 1-91); test: BLI; Octet RED96, 303 K; biotinylated ligand on streptavidin biosensors, analyte in a dose series, 0.1% BSA; association and dissociation 1000 s each; which partner was immobilised is not told; conditions: both partners purified
T2 construct: RNA polymerase subunit alpha, E. coli; RNA polymerase subunit beta, E. coli; RNA polymerase subunit beta', E. coli; RNA polymerase subunit omega, E. coli; also called RNAP core-enzyme; source: expressed from plasmid pIA900, purified as by Svetlov and Artsimovitch with an added SEC step (Superose6); copies: 2 + 1 + 1 + 1

UvrD-CTD [2] = target: T1, UvrD-CTD; test: BLI; NMR titrations at 298 K: UvrD-CTD in UvrD NMR buffer (20 mM K-phosphate, 50 mM KCl, 5 mM DTT, pH 6.5, 10% D2O), Mfd-RID in PBS pH 7.4 with 10% D2O; BLI buffer not given in the material; conditions: protein: recombinant, tags: N-terminal His6, uncleavable, label: biotin
UvrD-CTD [3] = target: T1, UvrD-CTD; test: NMR titration; up to 2 molar equivalents DNA; NMR titrations at 298 K: UvrD-CTD in UvrD NMR buffer (20 mM K-phosphate, 50 mM KCl, 5 mM DTT, pH 6.5, 10% D2O), Mfd-RID in PBS pH 7.4 with 10% D2O; BLI buffer not given in the material; conditions: protein: recombinant, tags: N-terminal His6, uncleavable
Mfd-RID = Mfd-RID (Escherichia coli, UniProt P30958 472-547); test: NMR titration; 2 molar equivalents DNA; NMR titrations at 298 K: UvrD-CTD in UvrD NMR buffer (20 mM K-phosphate, 50 mM KCl, 5 mM DTT, pH 6.5, 10% D2O), Mfd-RID in PBS pH 7.4 with 10% D2O; BLI buffer not given in the material; conditions: protein: recombinant; tags: His6-SUMO removed by SenP1; single strand
[4] = self-complementary 28 bp duplex of 2 identical strands, 3' overhangs 7 nt, snap cooled after dissolving

T2 sequence (P0A7Z4 whole entry, chain 1 of 4): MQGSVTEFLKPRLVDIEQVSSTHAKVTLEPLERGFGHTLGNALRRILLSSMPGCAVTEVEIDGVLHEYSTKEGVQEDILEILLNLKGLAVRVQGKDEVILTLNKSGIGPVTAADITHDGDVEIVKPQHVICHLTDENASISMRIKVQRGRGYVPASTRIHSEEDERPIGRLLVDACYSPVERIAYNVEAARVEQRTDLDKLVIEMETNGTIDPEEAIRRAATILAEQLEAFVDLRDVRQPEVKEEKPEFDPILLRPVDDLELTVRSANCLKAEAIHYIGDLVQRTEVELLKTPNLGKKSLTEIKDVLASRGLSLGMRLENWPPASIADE
T2 sequence (P0A8V2 whole entry, chain 2 of 4): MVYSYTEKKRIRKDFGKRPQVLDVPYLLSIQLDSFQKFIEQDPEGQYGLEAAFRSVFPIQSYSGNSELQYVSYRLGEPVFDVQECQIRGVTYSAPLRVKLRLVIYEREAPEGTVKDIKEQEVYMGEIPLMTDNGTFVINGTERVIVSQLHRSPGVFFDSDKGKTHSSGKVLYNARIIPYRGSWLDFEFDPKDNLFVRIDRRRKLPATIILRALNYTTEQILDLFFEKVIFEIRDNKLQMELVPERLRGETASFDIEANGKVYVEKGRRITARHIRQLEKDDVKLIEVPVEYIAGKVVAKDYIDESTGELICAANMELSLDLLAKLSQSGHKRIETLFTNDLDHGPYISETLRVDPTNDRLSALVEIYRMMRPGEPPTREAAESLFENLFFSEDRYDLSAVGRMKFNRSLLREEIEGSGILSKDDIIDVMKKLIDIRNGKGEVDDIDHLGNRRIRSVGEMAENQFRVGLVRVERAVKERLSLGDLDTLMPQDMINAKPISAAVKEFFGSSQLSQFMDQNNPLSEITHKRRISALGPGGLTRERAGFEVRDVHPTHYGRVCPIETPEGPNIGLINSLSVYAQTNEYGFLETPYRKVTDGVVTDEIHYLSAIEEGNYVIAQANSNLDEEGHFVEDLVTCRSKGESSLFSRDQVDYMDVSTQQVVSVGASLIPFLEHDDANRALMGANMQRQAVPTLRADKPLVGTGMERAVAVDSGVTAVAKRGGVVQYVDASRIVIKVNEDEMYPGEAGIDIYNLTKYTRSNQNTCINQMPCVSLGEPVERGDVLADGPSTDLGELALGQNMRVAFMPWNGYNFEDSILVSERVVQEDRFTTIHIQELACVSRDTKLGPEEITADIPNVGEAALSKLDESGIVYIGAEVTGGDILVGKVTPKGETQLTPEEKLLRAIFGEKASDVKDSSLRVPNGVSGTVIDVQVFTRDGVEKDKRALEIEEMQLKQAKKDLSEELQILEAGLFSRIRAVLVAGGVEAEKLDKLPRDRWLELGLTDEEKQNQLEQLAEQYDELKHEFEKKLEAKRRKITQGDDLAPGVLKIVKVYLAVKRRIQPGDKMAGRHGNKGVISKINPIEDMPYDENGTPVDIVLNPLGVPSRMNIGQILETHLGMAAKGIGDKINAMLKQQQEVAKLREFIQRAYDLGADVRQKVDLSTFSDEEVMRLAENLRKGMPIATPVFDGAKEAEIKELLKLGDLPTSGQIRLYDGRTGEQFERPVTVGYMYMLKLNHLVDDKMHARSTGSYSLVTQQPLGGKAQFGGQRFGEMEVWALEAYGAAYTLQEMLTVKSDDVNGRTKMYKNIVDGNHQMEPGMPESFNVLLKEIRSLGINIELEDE
T2 sequence (P0A8T7 whole entry, chain 3 of 4): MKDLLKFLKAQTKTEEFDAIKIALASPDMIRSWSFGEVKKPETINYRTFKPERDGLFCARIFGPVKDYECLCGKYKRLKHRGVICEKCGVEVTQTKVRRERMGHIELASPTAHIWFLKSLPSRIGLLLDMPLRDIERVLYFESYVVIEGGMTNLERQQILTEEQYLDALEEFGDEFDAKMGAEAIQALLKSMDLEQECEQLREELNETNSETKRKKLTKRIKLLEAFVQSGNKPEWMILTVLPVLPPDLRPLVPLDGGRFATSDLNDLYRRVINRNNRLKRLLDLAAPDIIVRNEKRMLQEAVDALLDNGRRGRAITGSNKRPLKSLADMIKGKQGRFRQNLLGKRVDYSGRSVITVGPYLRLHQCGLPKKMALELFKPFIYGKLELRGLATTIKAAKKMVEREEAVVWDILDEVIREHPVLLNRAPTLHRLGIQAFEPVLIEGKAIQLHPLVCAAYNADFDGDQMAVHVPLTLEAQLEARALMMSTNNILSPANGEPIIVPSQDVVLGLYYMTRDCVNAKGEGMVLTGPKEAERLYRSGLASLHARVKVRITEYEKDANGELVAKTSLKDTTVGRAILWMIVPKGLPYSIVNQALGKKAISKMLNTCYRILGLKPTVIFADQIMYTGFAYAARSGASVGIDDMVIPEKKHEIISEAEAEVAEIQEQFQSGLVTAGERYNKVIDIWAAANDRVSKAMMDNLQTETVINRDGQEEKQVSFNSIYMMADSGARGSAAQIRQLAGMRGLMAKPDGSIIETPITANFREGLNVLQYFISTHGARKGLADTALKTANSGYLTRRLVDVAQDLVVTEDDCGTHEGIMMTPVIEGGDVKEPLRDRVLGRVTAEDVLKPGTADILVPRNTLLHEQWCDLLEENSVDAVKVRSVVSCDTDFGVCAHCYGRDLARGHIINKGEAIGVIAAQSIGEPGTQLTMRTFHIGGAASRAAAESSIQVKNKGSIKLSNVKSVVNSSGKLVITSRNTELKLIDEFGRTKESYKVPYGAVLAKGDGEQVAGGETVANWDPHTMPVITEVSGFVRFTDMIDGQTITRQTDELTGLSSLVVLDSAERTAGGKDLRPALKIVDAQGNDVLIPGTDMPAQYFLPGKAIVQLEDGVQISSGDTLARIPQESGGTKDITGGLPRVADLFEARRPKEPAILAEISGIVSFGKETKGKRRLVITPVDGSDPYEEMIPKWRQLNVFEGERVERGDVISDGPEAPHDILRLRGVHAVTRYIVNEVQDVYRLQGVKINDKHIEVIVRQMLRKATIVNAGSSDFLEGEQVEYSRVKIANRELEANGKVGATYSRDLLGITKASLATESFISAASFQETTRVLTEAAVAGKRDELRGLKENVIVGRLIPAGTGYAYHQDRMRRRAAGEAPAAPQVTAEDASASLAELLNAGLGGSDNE
T2 sequence (P0A800 whole entry, chain 4 of 4): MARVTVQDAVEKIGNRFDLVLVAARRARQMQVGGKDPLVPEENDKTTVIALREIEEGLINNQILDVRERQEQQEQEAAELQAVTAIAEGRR

| Binder | Kd [1] [nM] | also measured |
| --- | --- | --- |
| B1 | 77 ± 0.3 |  |
| B2 | 310 ± 14 |  |
| GCAGTGCTCGTTTTTTT (ssDNA, biotin (position not given)) [biotinylated 17mer ssDNA] |  | Kd (UvrD-CTD [2]; single strand): 3800 ± 470 nM |
| B3 | 1000 ± 130 |  |
| B4 |  | Kd (UvrD-CTD [2]; [4]): 1900 ± 170 nM |
| B5 |  | binding result (UvrD-CTD [3]; [4]): binds |
| B6 | 1900 ± 150 |  |
| GCAGTGCTCGTTTTTTT (ssDNA) [17mer ssDNA] |  | binding result (Mfd-RID): no binding; binding result (UvrD-CTD [3]; single strand): binds |
| B7 | 250 ± 52 |  |

Reference: PMC7585439, “UvrD helicase–RNA polymerase interactions are governed by UvrD’s carboxy-terminal Tudor domain” (Communications Biology, 2020)
